Structures can show the parent of a compound that is named as a salt.
Assays:
WBSCR27 = biological target: T1, WBSCR27 (Mus musculus, UniProt Q8BGM4); test: 1H, […] HSQC NMR titration; type: binding; settings: 15N-labelled apo protein 0.2 mM, ligand 1:1 to 1:5; cofactor site
T1 construct: gene Mettl27; recombinant, 15N-labelled; purification details only in supplement
T1 sequence (Q8BGM4 1-238): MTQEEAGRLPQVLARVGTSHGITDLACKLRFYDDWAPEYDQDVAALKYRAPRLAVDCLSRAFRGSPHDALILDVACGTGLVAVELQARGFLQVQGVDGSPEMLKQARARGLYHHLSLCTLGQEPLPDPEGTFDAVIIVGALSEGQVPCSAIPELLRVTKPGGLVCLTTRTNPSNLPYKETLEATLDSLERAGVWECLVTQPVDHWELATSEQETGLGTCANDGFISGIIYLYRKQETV

CI = tested on: T2, CI; test: Michaelis-Menten kinetics of SAH-PH methylation; type: biochemical, Arabidopsis thaliana; settings: co-substrate rac-SAH-PH
T2 construct: engineered variant V140T, recombinant; expression details only in supplement

Row | 1H,15N HSQC NMR titration (WBSCR27) | Compound | Km (CI) [mM] | kcat (CI) [s⁻¹]
1 | WBSCR27 strongly binds to SAM-P H | C[S+](CCC(N)[PH](=O)O)C[C@H]1O[C@@H](n2cnc3c(N)ncnc32)[C@H](O)[C@@H]1O (mixture of isomers) [rac-SAM-PH, 5′-{S-[3-Amino-3-(hydrohydroxyphosphoryl)propy]-S-methylthionia}-5′-deoxyadenosine hydrochloride] |  | 
2 |  | AtHMT^V140T (Arabidopsis thaliana; V140T) | 5.3 ± 3 | 0.3 ± 0.033
